First the molecules themselves.
T1: Human CD3eg linker (human)
T1 construct: Single-chain construct; also called recombinant human CD3
T1 chain: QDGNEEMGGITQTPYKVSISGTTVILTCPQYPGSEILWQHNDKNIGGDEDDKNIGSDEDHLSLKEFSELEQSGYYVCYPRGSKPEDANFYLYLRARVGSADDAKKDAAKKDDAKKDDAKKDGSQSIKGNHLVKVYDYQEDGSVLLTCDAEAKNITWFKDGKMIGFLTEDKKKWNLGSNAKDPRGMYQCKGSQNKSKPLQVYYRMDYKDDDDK

B1: H183/L072 VL S93D (antibody, name in Kabat numbering, V domains shown)
VH: QVQLVESGGGLVQPGRSLRLSCAASGFTFSNAWMHWVRQAPGKGLEWVAQIKDKGNAYAAYYAPSVKGRFTISRDDSKNSIYLQMNSLKTEDTAVYYCHYVHYASASTVLPAFGVDAWGQGTTVTVSS
VL: DIVMTQSPLSLPVTPGEPASISCQASQELVHMNRNTYLHWYQQKPGQAPRLLIYKVSNRFPGVPDRFSGSGSGTDFTLKISRVEAEDVGVYYCAQGTDVPFTFGQGTKLEIK
B2: H183/L072 VL S93E (antibody, name in Kabat numbering, V domains shown)
VH: B1 VH
VL: B1 VL with D98E
B3: H183/L072 VL T31R (antibody, name in Kabat numbering, V domains shown)
VH: B1 VH
VL: B1 VL with T36R, D98S
B4: H183/L072 VL S93F (antibody, name in Kabat numbering, V domains shown)
VH: B1 VH
VL: B1 VL with D98F
B5: H183/L072 VL S93H (antibody, name in Kabat numbering, V domains shown)
VH: B1 VH
VL: B1 VL with D98H
B6: H183/L072 VL T31L (antibody, name in Kabat numbering, V domains shown)
VH: B1 VH
VL: B1 VL with T36L, D98S
B7: H183/L072 VL S93Q (antibody, name in Kabat numbering, V domains shown)
VH: B1 VH
VL: B1 VL with D98Q
B8: H183/L072 VL T31N (antibody, name in Kabat numbering, V domains shown)
VH: B1 VH
VL: B1 VL with T36N, D98S
B9: H183/L072 VL S93T (antibody, name in Kabat numbering, V domains shown)
VH: B1 VH
VL: B1 VL with D98T
B10: H183/L072 VL T31D (antibody, name in Kabat numbering, V domains shown)
VH: B1 VH
VL: B1 VL with T36D, D98S
B11: H183/L072 VL T31S (antibody, name in Kabat numbering, V domains shown)
VH: B1 VH
VL: B1 VL with T36S, D98S
B12: H183/L072 VL T31H (antibody, name in Kabat numbering, V domains shown)
VH: B1 VH
VL: B1 VL with T36H, D98S
B13: H183/L072 VL T31E (antibody, name in Kabat numbering, V domains shown)
VH: B1 VH
VL: B1 VL with T36E, D98S
B14: H183/L072 VL S93R (antibody, name in Kabat numbering, V domains shown)
VH: B1 VH
VL: B1 VL with D98R
B15: H183/L072 VL T31G (antibody, name in Kabat numbering, V domains shown)
VH: B1 VH
VL: B1 VL with T36G, D98S
B16: H183/L072 VL S93L (antibody, name in Kabat numbering, V domains shown)
VH: B1 VH
VL: B1 VL with D98L
B17: H183/L072 VL S93V (antibody, name in Kabat numbering, V domains shown)
VH: B1 VH
VL: B1 VL with D98V
B18: H183/L072 VL T92A (antibody, name in Kabat numbering, V domains shown)
VH: B1 VH
VL: B1 VL with T97A, D98S
B19: H183/L072 VL S93I (antibody, name in Kabat numbering, V domains shown)
VH: B1 VH
VL: B1 VL with D98I
B20: H183/L072 VL T31Q (antibody, name in Kabat numbering, V domains shown)
VH: B1 VH
VL: B1 VL with T36Q, D98S
B21: H183/L072 VL S93G (antibody, name in Kabat numbering, V domains shown)
VH: B1 VH
VL: B1 VL with D98G
B22: H183/L072 VL S93W (antibody, name in Kabat numbering, V domains shown)
VH: B1 VH
VL: B1 VL with D98W
B23: H183/L072 VL T31K (antibody, name in Kabat numbering, V domains shown)
VH: B1 VH
VL: B1 VL with T36K, D98S
B24: H183/L072 VL S93M (antibody, name in Kabat numbering, V domains shown)
VH: B1 VH
VL: B1 VL with D98M
B25: H183/L072 VL S93K (antibody, name in Kabat numbering, V domains shown)
VH: B1 VH
VL: B1 VL with D98K
B26: H183/L072 VL T92E (antibody, name in Kabat numbering, V domains shown)
VH: B1 VH
VL: B1 VL with T97E, D98S
B27: H183/L072 VL S93N (antibody, name in Kabat numbering, V domains shown)
VH: B1 VH
VL: B1 VL with D98N
B28: H183/L072 VL T31I (antibody, name in Kabat numbering, V domains shown)
VH: B1 VH
VL: B1 VL with T36I, D98S
B29: H183/L072 VL T92D (antibody, name in Kabat numbering, V domains shown)
VH: B1 VH
VL: B1 VL with T97D, D98S
B30: H183/L072 VL T31V (antibody, name in Kabat numbering, V domains shown)
VH: B1 VH
VL: B1 VL with T36V, D98S
B31: H183/L072 VL T31A (antibody, name in Kabat numbering, V domains shown)
VH: B1 VH
VL: B1 VL with T36A, D98S

Residue numbers refer to the chain shown, from its start. Numbers in names are those of the source.

For this test, the target named is T1, Human CD3eg linker. As to the kind of experiment: SPR; fold vs parent H183/L072. (In SPR one partner is held on a chip, and binding of the other changes the refractive index at the surface.)
Regarding B1, the “fold change of affinity” value stood at 0.7 fold.

Turning to B2, the “fold change of affinity” value is 1 fold.

Consider B3, for which the “fold change of affinity” value stood at 0.4 fold.

Take B4: the “fold change of affinity” value turned out to be 1 fold.

B5: the “fold change of affinity” value stood at 0.9 fold.

For B6, the “fold change of affinity” value was 0 fold.

In the case of B7, the “fold change of affinity” value came to 1 fold.

As to B8, the “fold change of affinity” value came to 0 fold.

Regarding B9, the “fold change of affinity” value was found to be 1 fold.

For B10, the “fold change of affinity” value is 0 fold.

With B11, the “fold change of affinity” value was determined as 0.5 fold.

For B12, the “fold change of affinity” value came to 0.1 fold.

As for B13, the “fold change of affinity” value was found to be 0.4 fold.

On to B14, for which the “fold change of affinity” value was 1 fold.

Take B15: the “fold change of affinity” value came out at 0 fold.

As to B16, the “fold change of affinity” value amounted to 0.9 fold.

As for B17, the “fold change of affinity” value was determined as 0.7 fold.

For the molecule B18, the “fold change of affinity” value was 0.1 fold.

B19: the “fold change of affinity” value is 0.8 fold.

Take B20: the “fold change of affinity” value is 0.4 fold.

For the molecule B21, the “fold change of affinity” value is 0.8 fold.

On to B22, for which the “fold change of affinity” value is 1.1 fold.

On to B23, for which the “fold change of affinity” value worked out at 0.4 fold.

Consider B24, for which the “fold change of affinity” value came to 1 fold.

Consider B25, for which the “fold change of affinity” value was 1 fold.

Regarding B26, the “fold change of affinity” value is 0 fold.

On to B27, for which the “fold change of affinity” value was determined as 0.8 fold.

With B28, the “fold change of affinity” value was 0.7 fold.

Turning to B29, the “fold change of affinity” value is 0 fold.

Take B30: the “fold change of affinity” value came out at 0.7 fold.

As to B31, the “fold change of affinity” value was 0.2 fold.

The values are drawn from patent publication US20210388087A1 (Chugai, published 2021).
